Assay results from patent US20080019991A1 (CYTOS BIOTECHNOLOGY, published 2008).

Target: T1, recombinant human RANK-hFc fusion protein (human, UniProt Q9Y6Q6 30-212, limits assumed)
T1 construct: also called hRANK; not shown: human Fc (hFc)
T1 sequence (looked up): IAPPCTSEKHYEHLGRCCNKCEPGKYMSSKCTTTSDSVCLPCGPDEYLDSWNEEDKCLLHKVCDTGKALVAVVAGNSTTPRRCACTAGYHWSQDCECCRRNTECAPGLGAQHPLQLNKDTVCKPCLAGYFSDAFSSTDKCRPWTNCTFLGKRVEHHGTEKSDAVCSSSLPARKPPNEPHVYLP
Assay: ELISA, human RANKL coated at 10 µg/ml, anti-hFc-HRP detection
Procedure: To test whether the antibodies generated in mice have neutralizing activity, in vitro binding assays for both mouse and human RANKL and their cognate receptors mouse RANK and human RANK were established. ELISA plates were therefore coated with 10 μg/ml of either mouse or human RANKL protein and incubated with serial dilutions of a recombinant mouse RANK-hFc fusion protein or a recombinant human RANK-hFc fusion protein, respectively. Bound protein was detected with a horse raddish peroxidase conjugated anti-hFc antibody. […] ELISA plates were therefore coated with either mouse or human RANKL protein at a concentration of 10 μg/ml, and co-incubated with serial dilutions of a pool of mouse sera from day 35 and 0.35 nM mouse or human RANK-hFc fusion protein, respectively. Binding of receptor to immobilized RANKL protein was detected with horse raddish peroxidase conjugated anti-hFc antibody.

B1: human RANKL protein (ligand, UniProt O14788 140-317, looked up)
chain: IRAEKAMVDGSWLDLAKRSKLEAQPFAHLTINATDIPSGSHKVSLSSWYHDRGWAKISNMTFSNGKLIVNQDGFYYLYANICFRHHETSGDLATEYLQLMVYVTKTSIKIPSSHTLMKGGSTKYWSGNSEFHFYSINVGGFFKLRSGEEISIEVSNPSLLDPDQDATYFGAFKVRDID
notes: Coated on ELISA plates; also called hRANKL
binding result: binds
